How the values were obtained:
Assay in all cases: cell_activity
[1] = tested on: TALEN ssNF1ex42.2 left (synthetic (Xanthomonas TALE-FokI)?); conditions: HDR by RFLP, pig fibroblasts, 3 days 30 C; pair with P4, 16 bp spacer
[2] = tested on: TALEN ssTP53 E6 right (synthetic (Xanthomonas TALE-FokI)?); conditions: Surveyor (Cel) assay, co-transfected with ssNF1 42.3; pair with P7, 16 bp spacer
[3] = tested on: TALEN ssNF1ex42.2 right (synthetic (Xanthomonas TALE-FokI)?); conditions: HDR by RFLP, pig fibroblasts, 3 days 30 C; pair with P3, 16 bp spacer
[4] = tested on: TALEN ssNF1ex42.3 right (synthetic (Xanthomonas TALE-FokI)?); conditions: HDR by RFLP, pig fibroblasts, 3 days 30 C; pair with P5, 16 bp spacer; 25.5% when co-transfected with ssTP53 E6
[5] = tested on: TALEN ssNF1ex42.3 left (synthetic (Xanthomonas TALE-FokI)?); conditions: HDR by RFLP, pig fibroblasts, 3 days 30 C; pair with P6, 16 bp spacer; 25.5% when co-transfected with ssTP53 E6
[6] = tested on: TALEN ssTP53 E6 left (synthetic (Xanthomonas TALE-FokI)?); conditions: Surveyor (Cel) assay, co-transfected with ssNF1 42.3; pair with P8, 16 bp spacer
[7] = tested on: TALEN ssNF1ex42.1 right (synthetic (Xanthomonas TALE-FokI)?); conditions: HDR by RFLP, pig fibroblasts, 3 days 30 C; pair with P1, 16 bp spacer
[8] = tested on: TALEN ssNF1ex42.1 left (synthetic (Xanthomonas TALE-FokI)?); conditions: HDR by RFLP, pig fibroblasts, 3 days 30 C; pair with P2, 16 bp spacer

AAGCACAATGATGATGC (double strand) [NF1 exon 42 site, 42.2 left half-site]
activity (% allele modification) [1]: 45.1

AAGTCAGAGTACATG (double strand) [TP53 exon 6 site, right half-site]
activity [2]: 11.8 % cutting

ACTGCGATCCTTGATA (double strand) [NF1 exon 42 site, 42.2 right half-site]
activity (% allele modification) [3]: 45.1

CCTTGATAAGCTGATA (double strand) [NF1 exon 42 site, 42.3 right half-site]
activity (% allele modification) [4]: 27.2

GATGATGCCAAACGAC (double strand) [NF1 exon 42 site, 42.3 left half-site]
activity (% allele modification) [5]: 27.2

GGCACCCGTGTCCGCGC (double strand) [TP53 exon 6 site, left half-site]
activity [6]: 11.8 % cutting

GTTACTGCGATCCTTG (double strand) [NF1 exon 42 site, 42.1 right half-site]
activity (% allele modification) [7]: 54.2

TGTAAGCACAATGATGA (double strand) [NF1 exon 42 site, 42.1 left half-site]
activity (% allele modification) [8]: 54.2

From patent publication US20160160238
